# Source: PMC2839002 (Chromosoma, 2009)
# Substitutions are numbered along the chain they refer to. Numbers in names are those of the source.
# B1: GST-C214 C6D (domain or fragment, human, UniProt P38432 362-576, looked up)
# chain: AGAAGWRRSGSNGGGQAPGASPSVSLPASLGRGWGREENLFSWKGAKGRGMRGRGRGRGHPVSCVVNRSTDNQRQQQLNDVVKNSSTIIQNPVETPKKDYSLLPLLAAAPQVGEKIAFKLLELTSSYSPDVSDYKEGRILSHNPETQQVDIEILSSLPALREPGKFDLVYHNENGAEVVEYAVTQESKITVFWKELIDPRLIIEDPDNEDDEEPA
# B2: GST-C214 S489D + DDE (domain or fragment, human, UniProt P38432 362-576, looked up)
# chain: B1 chain with S128D, D205S, D207S, E209T
# B3: GST-C214 DDE (domain or fragment, human, UniProt P38432 362-576, looked up)
# chain: B1 chain with D205S, D207S, E209T
# B4: GST-coilin DDE (natural protein)
# chain: MAASETVRLRLQFDYPPPATPHCTAFWLLVDLNRCRVVTDLISLIRQRFGFSSGAFLGLYLEGGLLPPAESARLVRDNDCLRVKLEERGVAENSVVISNGDINLSLRKAKKRAFQLEEGEETEPDCKYSKKHWKSRENNNNNEKVLDLEPKAVTDQTVSKKNKRKNKATCGTVGDDNEEAKRKSPKKKEKCEYKKKAKNPKSPKVQAVKDWANQRCSSPKGSARNSLVKAKRKGSVSVCSKESPSSSSESESCDESISDGPSKVTLEARNSSEKLPTELSKEEPSTKNTTADKLAIKLGFSLTPSKGKTSGTTSSSSDSSAESDDQCLMSSSTPECAAGFLKTVGLFAGRGRPGPGLSSQTAGAAGWRRSGSNGGGQAPGASPSVSLPASLGRGWGREENLFSWKGAKGRGMRGRGRGRGHPVSCVVNRSTDNQRQQQLNDVVKNSSTIIQNPVETPKKDYSLLPLLAAAPQVGEKIAFKLLELTSSYSPDVSDYKEGRILSHNPETQQVDIEILSSLPALREPGKFDLVYHNENGAEVVEYAVTQESKITVFWKELIDPRLIIESPSNTDDEEPA
# Target: His-T7-SMN (UniProt Q16637 1-294)
# Sequence (Q16637 whole entry): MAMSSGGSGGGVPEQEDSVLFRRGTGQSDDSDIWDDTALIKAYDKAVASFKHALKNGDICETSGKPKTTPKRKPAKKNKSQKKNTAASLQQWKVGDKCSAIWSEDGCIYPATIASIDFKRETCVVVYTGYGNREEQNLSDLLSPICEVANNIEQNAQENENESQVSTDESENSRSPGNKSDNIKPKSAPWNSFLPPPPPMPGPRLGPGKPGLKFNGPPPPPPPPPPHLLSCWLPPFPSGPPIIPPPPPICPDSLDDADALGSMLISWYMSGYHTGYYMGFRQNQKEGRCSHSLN
# Assay: pull-down
row,binding result,Binder
1,binds,B1
2,binds,B2
3,binds,B3

# Target: His-T7-SmB′ (UniProt P14678 1-240)
# Assay: pull-down
row,binding result,Binder
1,binds,B1
2,binds,B2
3,binds,B3
4,binds,B4
